Article doi:10.1101/2025.11.17.688879 (bioRxiv, 2025)

B1: HA-NvSTING stably expressed in MEF Sting-/- cells (MEF^NvSTING) (natural protein, Nematostella vectensis)
chain: MRRAEENNGFGTIPKRRNQHTPFYASIGMIVVIIVAFTSYHITSYGDDRNRAMRQYSFTFSLAYLAFLVGELLRRCCLFAEEYRHIETRYNGSLKKAIQTTFSFGHNNVLFVASLLFFVVFVASNDPNGSSSVIQGNSTAEPHTEMRQTSGWQGLWGQFIISALLTPLVVHLLGLRELSKVEESQLNEKENKNVADGLAWSYYFGYLKFVLPELEKQIEKTSKFRSKEKFVKKMFILIPSNCFWDDKIPGSDYDPQNRITFEGNTEPLEKTRGGVFLRHYKHSVYEIKDGENEPWFCIMEYATPLLTLYDMSVAQPGELSREERDAQVVVFLRKLQDILEGDRACQGKYELVTFSPDRDLADVMLRKLKDSELEIGG
B2: HA-DrSTING stably expressed in MEF Sting-/- cells (MEF^DrSTING) (natural protein, Danio rerio)
chain: MSVMGEDALVPRARSRLPVMCAAGLGFLTLAVAWLLDSDKFSERAGIIAFGLMLERFIYCICLLAEELLFHSRQRYHGRMSEIFRACFRGSGILGMCAIFLMLMLGGVSFSVKQWSHFNLMCAGYMLLNSLGVLGPAPVEISEICEAKKMNVAHGLAWSFYIGYLKFLLPALEVNVREYSRRERLSSPRLHILLPLNARVPSKPEEEDTNVVFHENLPDLKLDRAGVRKRSYTNSVYKITHNNETFSCILEYATPLLTLYQMSQESSAGFGERERKQQVLLFYRTLSQILDNSLECRNRYRLILLNDEHTGDPHYLSRELFQNLKQQDGEIFMDPTNEVHPVPEEGPVGNCNGALQATFHEEPMSDEPTLMFSRPQSLRSEPVETTDYFNPSSAMKQN
B3: HA-MmSTING stably expressed in MEF Sting-/- cells (MEF^MmSTING) (natural protein, Mus musculus)
chain: MPYSNLHPAIPRPRGHRSKYVALIFLVASLMILWVAKDPPNHTLKYLALHLASHELGLLLKNLCCLAEELCHVQSRYQGSYWKAVRACLGCPIHCMAMILLSSYFYFLQNTADIYLSWMFGLLVLYKSLSMLLGLQSLTPAEVSAVCEEKKLNVAHGLAWSYYIGYLRLILPGLQARIRMFNQLHNNMLSGAGSRRLYILFPLDCGVPDNLSVVDPNIRFRDMLPQQNIDRAGIKNRVYSNSVYEILENGQPAGVCILEYATPLQTLFAMSQDAKAGFSREDRLEQAKLFCRTLEEILEDVPESRNNCRLIVYQEPTDGNSFSLSQEVLRHIRQEEKEEVTMNAPMTSVAPPPSVLSQEPRLLISGMDQPLPLRTDLI
B4: HA-MbSTING stably expressed in MEF Sting-/- cells (MEF^MbSTING) (natural protein, Monosiga brevicollis)
chain: MMVNLSDLSHLSQRGWAQVFVTLAAAAISIFYFSFSPFEVAAGICASIAAAGAVPLLFDAVHYLIAFCISAPDARPPLRTVWTKTRLQRWSGLSILTFIVLACGLYFASPSPMSASNLFAVFALSLCNSVFSAMVAPRCGRLEVVDLATHPNTVLFRDFGAASAMSYWHGYLQHIAGDRAALEERFRDSDVGGMRVPRKLYILVPQDCEVNASDNKYEGLKATEHYISPKPITIGGVVDREMGKHTLYTPSESAETASVAFAMELASPLNTMKNALKDAAEGLLELQSEAFYLTLRGILKQEGVLDQGNDEGMIKLVWGKNRSEVLKKMRAEDQYAMP

Biological target: the molecule itself
Test: native gel or EMSA

Protein | stoichiometry N
B1 | ≥ 4
B2 | ≥ 4
B3 | ≥ 4
B4 | 4
